T1: human fibrin (immobilised, fibrin-Sepharose) (human, UniProt P02671 36-629; P02675 45-491; P02679 27-437)
T1 construct: Fibrin coupled to Sepharose beads; Its preparation and chain limits are not described; also called human fibrin-Sepharose
T1 sequence 1: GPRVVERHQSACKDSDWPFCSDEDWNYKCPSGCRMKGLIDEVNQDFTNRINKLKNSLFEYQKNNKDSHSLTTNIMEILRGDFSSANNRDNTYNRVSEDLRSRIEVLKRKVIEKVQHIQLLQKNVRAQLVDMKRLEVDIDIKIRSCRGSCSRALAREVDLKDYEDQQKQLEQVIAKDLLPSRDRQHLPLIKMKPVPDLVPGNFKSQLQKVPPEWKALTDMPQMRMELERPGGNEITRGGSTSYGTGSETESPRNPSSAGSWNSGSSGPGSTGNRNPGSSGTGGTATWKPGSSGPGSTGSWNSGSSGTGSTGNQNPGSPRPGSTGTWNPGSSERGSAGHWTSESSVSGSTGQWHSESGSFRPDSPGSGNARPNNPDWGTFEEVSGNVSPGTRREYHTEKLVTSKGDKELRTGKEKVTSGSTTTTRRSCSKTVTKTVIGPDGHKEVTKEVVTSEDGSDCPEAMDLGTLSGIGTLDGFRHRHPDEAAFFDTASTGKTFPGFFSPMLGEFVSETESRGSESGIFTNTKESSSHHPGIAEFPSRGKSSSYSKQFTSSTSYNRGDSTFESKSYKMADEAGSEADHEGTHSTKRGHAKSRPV
T1 sequence 2: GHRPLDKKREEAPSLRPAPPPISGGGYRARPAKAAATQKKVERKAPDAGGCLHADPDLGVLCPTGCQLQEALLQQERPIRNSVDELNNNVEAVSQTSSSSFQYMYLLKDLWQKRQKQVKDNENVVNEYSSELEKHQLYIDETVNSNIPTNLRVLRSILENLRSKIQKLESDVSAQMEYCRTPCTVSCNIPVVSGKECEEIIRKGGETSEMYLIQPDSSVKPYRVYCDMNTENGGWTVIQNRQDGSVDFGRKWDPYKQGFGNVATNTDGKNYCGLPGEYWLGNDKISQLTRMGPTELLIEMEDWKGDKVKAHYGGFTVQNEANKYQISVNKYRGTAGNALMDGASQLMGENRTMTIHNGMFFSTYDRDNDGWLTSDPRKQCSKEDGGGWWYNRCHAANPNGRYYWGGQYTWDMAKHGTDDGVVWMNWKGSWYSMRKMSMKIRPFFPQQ
T1 sequence 3: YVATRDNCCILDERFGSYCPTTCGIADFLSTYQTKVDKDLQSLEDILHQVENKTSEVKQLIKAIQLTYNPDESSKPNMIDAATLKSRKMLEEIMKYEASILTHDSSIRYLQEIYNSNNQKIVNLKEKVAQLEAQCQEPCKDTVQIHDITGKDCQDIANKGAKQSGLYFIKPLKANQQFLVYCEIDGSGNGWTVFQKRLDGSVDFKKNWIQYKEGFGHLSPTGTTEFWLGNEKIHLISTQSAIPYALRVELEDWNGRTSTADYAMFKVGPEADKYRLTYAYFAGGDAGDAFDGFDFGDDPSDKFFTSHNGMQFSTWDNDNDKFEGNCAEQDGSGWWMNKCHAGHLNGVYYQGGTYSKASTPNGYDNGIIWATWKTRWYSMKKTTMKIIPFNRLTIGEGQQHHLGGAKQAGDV

B1: SK control (streptokinase, fibrin-Sepharose experiment) (other)
chain: IAGPEWLLDRPSVNNSQLVVSVAGTVEGTNQDISLKFFEIDLTSRPAHGGKTEQGLSPKSKPFATDSGAMSHKLEKADLLKAIQEQLIANVHSNDDYFEVIDFASDATITDRNGKVYFADKDGSVTLPTQPVQEFLLSGHVRVRPYKEKPIQNQAKSVDVEYTVQFTPLNPDDDFRPGLKDTKLLKTLAIGDTITSQELLAQAQSILNKNHPGYTIYERDSSIVTHDNDIFRTILPMDQEFTYRVKNREQAYRINKKSGLNEEINNTDLISEKYYVLKKGEKPYDPFDRSHLKLFTIKYVDVDTNELLKSEQLLTASERNLDFRDLYDPRDKAKLLYNNLDAFGIMDYTLTGKVEDNHDDTNRIITVYMGKRPEGENASYHLAYDKDRYTEEEREVYSYLRYTGTPIPDNPNDK
B2: SK-FBD(1,2) chimeric protein (other)
chain: MIAGPEWLLDRPSVNNSQLVVSVAGTVEGTNQDISLKFFEIDLTSRPAHGGKTEQGLSPKSKPFATDSGAMSHKLEKADLLKAIQEQLIANVHSNDDYFEVIDFASDATITDRNGKVYFADKDGSVTLPTQPVQEFLLSGHVRVRPYKEKPIQNQAKSVDVEYTVQFTPLNPDDDFRPGLKDTKLLKTLAIGDTITSQELLAQAQSILNKNHPGYTIYERDSSIVTHDNDIFRTILPMDQEFTYRVKNREQAYRINKKSGLNEEINNTDLISEKYYVLKKGEKPYDPFDRSHLKLFTIKYVDVDTNELLKSEQLLTASERNLDFRDLYDPRDKAKLLYNNLDAFGIMDYTLTGKVEDNHDDTNRIITVYMGKRPEGENASYHLAGGGQAQQMVQPQSPVAVSQSKPGCYDNGKHYQINQQWERTYLGNVLVCTCYGGSRGFNCESKPEAEETCFDKYTGNTYRVGDTYERPKDSMIWDCTCIGAGRGRISC
notes: Start residue 1 is inferred from primer MY-10, which hybridises at the natural TG site QAQQMV

Experiments:
[1] = target: T1, human fibrin (immobilised, …); assay: fibrin-Sepharose affinity chromatography; washes with binding buffer and 2 M urea, elution with 6 M urea
[2] = target: T1, human fibrin (immobilised, …); assay: refolding with fibrin-Sepharose beads; washes with binding buffer and 2 M urea, elution with 6 M urea

Binder | binding result [1] | fibrin-bound protein eluted with 6 M urea [2]
B1 | no binding | –
B2 | – | ~4 mg

Reference: patent US7163817 (COUNCIL OF SCIENTIFIC AND INDUSTRIAL RESEARCH A NEW DEHLI …, dated 2007)
